Target: Bovine serum albumin (BSA) (Bos taurus, UniProt P02769 P02769:25-607)
Assay: SPR; 400 nM BSA; minimal effect on response of aptamer sensor
Details: tags: Sigma Aldrich
Protocol: Non-coated (i.e., no gold) SensiQ base sensors were custom modified with the developed gold based SPR sensing surfaces. Specifically, freshly prepared aptamer-immobilized gold substrates were coupled to the stripped sensors with index matching optical oil. This was followed by then loading of 100 μL 1 M ethanolamine (EA) at a flow rate of 20 μL/min to block the non-occupied MPA sites activated by the EDC/NHS, followed by an injection of 100 μL of 100 mM phosphoric acid (PPA) at 50 μL/min to remove the non-specific binding. The running buffer was 0.1 M pH 7.2 PBS. The sensor was first normalized with the buffer for 10 min, then the thrombin sample (25 μL) at concentrations of 5 nM, 25 nM, 50 nM, 250 nM 500 nM, 1000 nM, 2000 nM were loaded at 5 μL/min. Samples with BSA were all prepared with 400 nM BSA. All data was recorded at 290 s, 300 s, and 310 s after the sample injection and averaged. Sensor regeneration was performed by the injection of 100 μL PPA at 50 μL/min followed by washing with the running buffer.
Adding BSA to the sample had minimal effect on the SPR response for the aptamer modified sensors, indicating a good selectivity of the sensor toward thrombin. This is in contrast to the bare Au sensor, which experienced a significant change between the thrombin samples with, and without, BSA. […]

Chain of Bovine serum albumin (BSA) (P02769 25-607, one chain of several): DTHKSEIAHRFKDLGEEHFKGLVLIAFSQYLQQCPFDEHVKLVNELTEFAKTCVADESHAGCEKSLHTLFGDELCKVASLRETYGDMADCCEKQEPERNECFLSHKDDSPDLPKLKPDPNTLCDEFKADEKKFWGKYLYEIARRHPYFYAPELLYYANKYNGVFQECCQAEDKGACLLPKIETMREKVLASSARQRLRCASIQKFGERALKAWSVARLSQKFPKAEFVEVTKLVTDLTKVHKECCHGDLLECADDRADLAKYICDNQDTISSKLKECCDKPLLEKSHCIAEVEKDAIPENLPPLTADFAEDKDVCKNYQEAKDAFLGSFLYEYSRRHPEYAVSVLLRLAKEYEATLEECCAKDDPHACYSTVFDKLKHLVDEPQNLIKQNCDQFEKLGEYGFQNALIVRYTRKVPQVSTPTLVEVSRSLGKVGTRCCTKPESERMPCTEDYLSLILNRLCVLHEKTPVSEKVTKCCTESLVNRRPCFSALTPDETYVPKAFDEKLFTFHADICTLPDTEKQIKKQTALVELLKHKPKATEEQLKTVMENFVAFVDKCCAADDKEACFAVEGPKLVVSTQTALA

Binder	binding result
GGTTGGTGTGGTTGG (ssDNA, 5'-NH2-(CH2)6) [APT1 (15-mer thrombin aptamer)]	no binding
CTATCAGTCCGTGGTAGGGCAGGTTGGGGTGACT (ssDNA, 5'-NH2-(CH2)6) [APT2 (34-mer thrombin aptamer)]	no binding

— patent US20150024957, “Methods and Devices for Detection and Measurement of Analytes” (THE UNIVERSITY OF TOLEDO, published 2015)
